Patent publication US20240228656A1
Blank lines part the entries; values can stand above or below the binder they belong to.

Target: cynomolgus EpCAM protein (cynomolgus)
Assay: colorimetric ELISA

cynomolgus EpCAM protein (cynomolgus), sequence (Q1WER1 27-265 limits assumed): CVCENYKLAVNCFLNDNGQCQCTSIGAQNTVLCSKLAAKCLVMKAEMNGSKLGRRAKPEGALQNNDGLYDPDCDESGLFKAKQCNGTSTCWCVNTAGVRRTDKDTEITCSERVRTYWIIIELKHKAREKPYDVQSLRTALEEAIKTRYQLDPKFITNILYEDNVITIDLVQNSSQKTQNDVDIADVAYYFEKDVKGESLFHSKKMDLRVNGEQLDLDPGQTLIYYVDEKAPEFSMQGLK

Cynomolgus EpCAM/Control: 2
ELISA absorbance: 0.4 absorbance
B1: EPL145 (VHH)
VHH: QVQLQESGGGLVQAGGSLRLSCAASGFIFRAASMGWFRQSPGNERELVATVSSGGFTNYADSVKGRFTISRDNAKNTVYLQMNSLKPEDTAVYFCGATFVRSDGHHTIYGQGTQVTVSS

Cynomolgus EpCAM/Control: 2
ELISA absorbance: 0.2 absorbance
B2: EPL159 (VHH)
VHH: QVQLQESGGGLVQAGGSLRLSCAASGFAFGNHWMYWYRQAPGRGRELVASISSGGSTNYVDSVKGRFTISRDNARNTVYLQMYSLKPEDTAVYYCGTSDNWGQGTQVTVSS
